{"source": "patent US20190127444A1", "about": "(NEW YORK UNIVERSITY, published 2019)", "binders": {"B1": {"name": "0×1 linker variant of Construct 11 (bispecific antibody)", "heavy": "EVQLVETGGGLVKPGGSLRLSCSASRFSFRDYYMTWIRQAPGKGPEWVSHISGSGSTIYYADSVRGRFTISRDNAKSSLYLQMDSLQADDTAVYYCARGGRATSYYWVHWGPGTLVTVSSASTKGPSVFPLAPSSKSTSGGTAALGCLVKDYFPEPVTVSWNSGALTSGVHTFPAVLQSSGLYSLSSVVTVPSSSLGTQTYICNVNHKPSNTKVDKKVEPKSCDKTHTCPPCPAPPVAGPDVFLFPPKPKDTLMISRTPEVTCVVVDVSHEDPEVKFNWYVDGVEVHNAKTKPREEQYNSTYRVVSVLTVLHQDWLNGKEYKCKVSNAALPAPIAKTISKAKGQPREPQVYTLPPSRDELTKNQVSLTCLVKGFYPSDIAVEWESNGQPENNYKTTPPVLDSDGSFFLYSKLTVDKSRWQQGNVFSCSVMHEALHNRFTQKSLSLSPGKMLPAPKNLVVSRVTEDSARLSWTAPDAAFDSFHIEYAEPWVWGEAIVLTVPGSERSYDLTGLKPGTEYVVFIGGVKGGHNSTPLSAIFTTGGGGSMLPAPKNLVVSRVTEDSARLSWTAPDAAFDSFWITYEEKFYRGEAIVLTVPGSERSYDLTGLKPGTEYKVWIVGVKGGQGSWPLSAIFTT", "light": "EIVLTQSPATLSLSPGERATLSCRASQSVSGYLGWYQQKPGQAPRLLIYGASSRATGIPDRFSGSGSGTDFTLTISRLEPEDFAVYYCQQYGSSPLTFGGGTKLEIKRTVAAPSVFIFPPSDEQLKSGTASVVCLLNNFYPREAKVQWKVDNALQSGNSQESVTEQDSKDSTYSLSSTLTLSKADYEKHKVYACEVTHQGLSSPVTKSFNRGEC"}, "B2": {"name": "0×2 linker variant of Construct 11 (bispecific antibody)", "heavy": "EVQLVETGGGLVKPGGSLRLSCSASRFSFRDYYMTWIRQAPGKGPEWVSHISGSGSTIYYADSVRGRFTISRDNAKSSLYLQMDSLQADDTAVYYCARGGRATSYYWVHWGPGTLVTVSSASTKGPSVFPLAPSSKSTSGGTAALGCLVKDYFPEPVTVSWNSGALTSGVHTFPAVLQSSGLYSLSSVVTVPSSSLGTQTYICNVNHKPSNTKVDKKVEPKSCDKTHTCPPCPAPPVAGPDVFLFPPKPKDTLMISRTPEVTCVVVDVSHEDPEVKFNWYVDGVEVHNAKTKPREEQYNSTYRVVSVLTVLHQDWLNGKEYKCKVSNAALPAPIAKTISKAKGQPREPQVYTLPPSRDELTKNQVSLTCLVKGFYPSDIAVEWESNGQPENNYKTTPPVLDSDGSFFLYSKLTVDKSRWQQGNVFSCSVMHEALHNRFTQKSLSLSPGKMLPAPKNLVVSRVTEDSARLSWTAPDAAFDSFHIEYAEPWVWGEAIVLTVPGSERSYDLTGLKPGTEYVVFIGGVKGGHNSTPLSAIFTTGGGGSGGGGSMLPAPKNLVVSRVTEDSARLSWTAPDAAFDSFWITYEEKFYRGEAIVLTVPGSERSYDLTGLKPGTEYKVWIVGVKGGQGSWPLSAIFTT", "light": "B1 light"}, "B3": {"name": "0×4 linker variant of Construct 11 (bispecific antibody)", "heavy": "EVQLVETGGGLVKPGGSLRLSCSASRFSFRDYYMTWIRQAPGKGPEWVSHISGSGSTIYYADSVRGRFTISRDNAKSSLYLQMDSLQADDTAVYYCARGGRATSYYWVHWGPGTLVTVSSASTKGPSVFPLAPSSKSTSGGTAALGCLVKDYFPEPVTVSWNSGALTSGVHTFPAVLQSSGLYSLSSVVTVPSSSLGTQTYICNVNHKPSNTKVDKKVEPKSCDKTHTCPPCPAPPVAGPDVFLFPPKPKDTLMISRTPEVTCVVVDVSHEDPEVKFNWYVDGVEVHNAKTKPREEQYNSTYRVVSVLTVLHQDWLNGKEYKCKVSNAALPAPIAKTISKAKGQPREPQVYTLPPSRDELTKNQVSLTCLVKGFYPSDIAVEWESNGQPENNYKTTPPVLDSDGSFFLYSKLTVDKSRWQQGNVFSCSVMHEALHNRFTQKSLSLSPGKMLPAPKNLVVSRVTEDSARLSWTAPDAAFDSFHIEYAEPWVWGEAIVLTVPGSERSYDLTGLKPGTEYVVFIGGVKGGHNSTPLSAIFTTGGGGSGGGGSGGGGSGGGGSMLPAPKNLVVSRVTEDSARLSWTAPDAAFDSFWITYEEKFYRGEAIVLTVPGSERSYDLTGLKPGTEYKVWIVGVKGGQGSWPLSAIFTT", "light": "B1 light"}, "B4": {"name": "1×4 linker variant of Construct 11 (bispecific antibody)", "heavy": "EVQLVETGGGLVKPGGSLRLSCSASRFSFRDYYMTWIRQAPGKGPEWVSHISGSGSTIYYADSVRGRFTISRDNAKSSLYLQMDSLQADDTAVYYCARGGRATSYYWVHWGPGTLVTVSSASTKGPSVFPLAPSSKSTSGGTAALGCLVKDYFPEPVTVSWNSGALTSGVHTFPAVLQSSGLYSLSSVVTVPSSSLGTQTYICNVNHKPSNTKVDKKVEPKSCDKTHTCPPCPAPPVAGPDVFLFPPKPKDTLMISRTPEVTCVVVDVSHEDPEVKFNWYVDGVEVHNAKTKPREEQYNSTYRVVSVLTVLHQDWLNGKEYKCKVSNAALPAPIAKTISKAKGQPREPQVYTLPPSRDELTKNQVSLTCLVKGFYPSDIAVEWESNGQPENNYKTTPPVLDSDGSFFLYSKLTVDKSRWQQGNVFSCSVMHEALHNRFTQKSLSLSPGKGGGGSMLPAPKNLVVSRVTEDSARLSWTAPDAAFDSFHIEYAEPWVWGEAIVLTVPGSERSYDLTGLKPGTEYVVFIGGVKGGHNSTPLSAIFTTGGGGSGGGGSGGGGSGGGGSMLPAPKNLVVSRVTEDSARLSWTAPDAAFDSFWITYEEKFYRGEAIVLTVPGSERSYDLTGLKPGTEYKVWIVGVKGGQGSWPLSAIFTT", "light": "B1 light"}, "B5": {"name": "3×3 linker variant of Construct 11 (bispecific antibody)", "heavy": "EVQLVETGGGLVKPGGSLRLSCSASRFSFRDYYMTWIRQAPGKGPEWVSHISGSGSTIYYADSVRGRFTISRDNAKSSLYLQMDSLQADDTAVYYCARGGRATSYYWVHWGPGTLVTVSSASTKGPSVFPLAPSSKSTSGGTAALGCLVKDYFPEPVTVSWNSGALTSGVHTFPAVLQSSGLYSLSSVVTVPSSSLGTQTYICNVNHKPSNTKVDKKVEPKSCDKTHTCPPCPAPPVAGPDVFLFPPKPKDTLMISRTPEVTCVVVDVSHEDPEVKFNWYVDGVEVHNAKTKPREEQYNSTYRVVSVLTVLHQDWLNGKEYKCKVSNAALPAPIAKTISKAKGQPREPQVYTLPPSRDELTKNQVSLTCLVKGFYPSDIAVEWESNGQPENNYKTTPPVLDSDGSFFLYSKLTVDKSRWQQGNVFSCSVMHEALHNRFTQKSLSLSPGKGGGGSGGGGSGGGGSMLPAPKNLVVSRVTEDSARLSWTAPDAAFDSFHIEYAEPWVWGEAIVLTVPGSERSYDLTGLKPGTEYVVFIGGVKGGHNSTPLSAIFTTGGGGSGGGGSGGGGSMLPAPKNLVVSRVTEDSARLSWTAPDAAFDSFWITYEEKFYRGEAIVLTVPGSERSYDLTGLKPGTEYKVWIVGVKGGQGSWPLSAIFTT", "light": "B1 light"}, "B6": {"name": "0×3 linker variant of Construct 11 (bispecific antibody)", "heavy": "EVQLVETGGGLVKPGGSLRLSCSASRFSFRDYYMTWIRQAPGKGPEWVSHISGSGSTIYYADSVRGRFTISRDNAKSSLYLQMDSLQADDTAVYYCARGGRATSYYWVHWGPGTLVTVSSASTKGPSVFPLAPSSKSTSGGTAALGCLVKDYFPEPVTVSWNSGALTSGVHTFPAVLQSSGLYSLSSVVTVPSSSLGTQTYICNVNHKPSNTKVDKKVEPKSCDKTHTCPPCPAPPVAGPDVFLFPPKPKDTLMISRTPEVTCVVVDVSHEDPEVKFNWYVDGVEVHNAKTKPREEQYNSTYRVVSVLTVLHQDWLNGKEYKCKVSNAALPAPIAKTISKAKGQPREPQVYTLPPSRDELTKNQVSLTCLVKGFYPSDIAVEWESNGQPENNYKTTPPVLDSDGSFFLYSKLTVDKSRWQQGNVFSCSVMHEALHNRFTQKSLSLSPGKMLPAPKNLVVSRVTEDSARLSWTAPDAAFDSFHIEYAEPWVWGEAIVLTVPGSERSYDLTGLKPGTEYVVFIGGVKGGHNSTPLSAIFTTGGGGSGGGGSGGGGSMLPAPKNLVVSRVTEDSARLSWTAPDAAFDSFWITYEEKFYRGEAIVLTVPGSERSYDLTGLKPGTEYKVWIVGVKGGQGSWPLSAIFTT", "light": "B1 light"}, "B7": {"name": "3×2 linker variant of Construct 11 (bispecific antibody)", "heavy": "EVQLVETGGGLVKPGGSLRLSCSASRFSFRDYYMTWIRQAPGKGPEWVSHISGSGSTIYYADSVRGRFTISRDNAKSSLYLQMDSLQADDTAVYYCARGGRATSYYWVHWGPGTLVTVSSASTKGPSVFPLAPSSKSTSGGTAALGCLVKDYFPEPVTVSWNSGALTSGVHTFPAVLQSSGLYSLSSVVTVPSSSLGTQTYICNVNHKPSNTKVDKKVEPKSCDKTHTCPPCPAPPVAGPDVFLFPPKPKDTLMISRTPEVTCVVVDVSHEDPEVKFNWYVDGVEVHNAKTKPREEQYNSTYRVVSVLTVLHQDWLNGKEYKCKVSNAALPAPIAKTISKAKGQPREPQVYTLPPSRDELTKNQVSLTCLVKGFYPSDIAVEWESNGQPENNYKTTPPVLDSDGSFFLYSKLTVDKSRWQQGNVFSCSVMHEALHNRFTQKSLSLSPGKGGGGSGGGGSGGGGSMLPAPKNLVVSRVTEDSARLSWTAPDAAFDSFHIEYAEPWVWGEAIVLTVPGSERSYDLTGLKPGTEYVVFIGGVKGGHNSTPLSAIFTTGGGGSGGGGSMLPAPKNLVVSRVTEDSARLSWTAPDAAFDSFWITYEEKFYRGEAIVLTVPGSERSYDLTGLKPGTEYKVWIVGVKGGQGSWPLSAIFTT", "light": "B1 light"}}, "data": [{"molecular_target": "T1, LukAB toxoid variant (LukA E323A), recombinant polyhistidine-tagged (S. aureus, UniProt Q2FFA2 28-351; P21224 30-338)", "T1 sequence 1": "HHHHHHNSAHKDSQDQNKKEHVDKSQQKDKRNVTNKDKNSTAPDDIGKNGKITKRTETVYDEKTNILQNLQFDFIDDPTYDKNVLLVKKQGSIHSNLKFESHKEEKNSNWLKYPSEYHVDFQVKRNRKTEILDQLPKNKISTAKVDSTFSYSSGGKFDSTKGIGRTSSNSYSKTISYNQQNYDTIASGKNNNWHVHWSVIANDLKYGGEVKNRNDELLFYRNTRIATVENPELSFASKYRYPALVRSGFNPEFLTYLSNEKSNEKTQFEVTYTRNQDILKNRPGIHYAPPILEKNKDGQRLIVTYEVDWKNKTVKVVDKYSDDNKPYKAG", "T1 sequence 2": "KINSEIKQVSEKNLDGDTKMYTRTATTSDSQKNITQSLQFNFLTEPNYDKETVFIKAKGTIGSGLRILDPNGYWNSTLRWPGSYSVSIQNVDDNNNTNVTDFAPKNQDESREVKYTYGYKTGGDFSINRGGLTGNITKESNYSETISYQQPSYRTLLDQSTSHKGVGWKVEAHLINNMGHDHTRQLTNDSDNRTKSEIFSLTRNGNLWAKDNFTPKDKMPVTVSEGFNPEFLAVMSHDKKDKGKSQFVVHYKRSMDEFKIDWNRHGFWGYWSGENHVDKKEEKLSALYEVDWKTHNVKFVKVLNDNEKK", "test": "ELISA, biotinylated toxin on streptavidin plate", "values": [{"binder": "B1", "binding result": "binds"}, {"binder": "B2", "binding result": "binds"}, {"binder": "B3", "binding result": "binds"}, {"binder": "B4", "binding result": "binds"}, {"binder": "B5", "binding result": "binds"}, {"binder": "B6", "binding result": "binds"}, {"binder": "B7", "binding result": "binds"}]}]}
